Consider three molecules from patent US20260109787A1 (NATIONAL UNIVERSITY CORPORATION YAMAGATA UNIVERSITY, published 2026).

For assay [1], the target named is T1, VHH-SpyCatcher (fragment released from VHH-SpyCatcher-CD3 H chain by thrombin).
T1 construct: Seen only as a band on SDS-PAGE, together with VHH-SpyTag
Kind of assay: SDS-PAGE of the purified thrombin-cleaved sample.

For assay [2], the target named is T2, VHH-SpyCatcher-CD3 H chain.
T2 construct: Fusion protein expressed in Expi293F cells; also called second protein; VHH-SpyCatcher-CD3 H chain region
As to the kind of experiment: SDS-PAGE before and after thrombin cleavage; the complex bands are lost after cleavage. The protocol:
Next, it was examined whether the band at the estimated molecular weight of the complex in Example 1(3) above was derived from the complex that included the VHH-SpyTag-CD3 L chain and the VHH-SpyCatcher-CD3 H chain. Specifically, the protein was purified in the same manner as in Example 1(2) above, and the elution fraction after the purification was added to a thrombin buffer (2.5 mmol/l CaCl₂), 150 mmol/l NaCl, 20 mmol/l Tris-HCl (pH8.0)). After the addition, the resulting mixture was dialyzed for 6 hours. Then, thrombin (cleaving ability: 2 unit/μl, manufactured by Wako Pure Chemical Industries, Ltd.) was added in accordance with the yield of the protein. After the addition, the mixture was left to stand at 25° C. overnight. After the standing, a sample after the cleavage reaction was purified using a protein A column. After the purification, a purified thrombin-cleaved sample was obtained. Then, SDS-PAGE was conducted. The SDS-PAGE was conducted in the same manner as in Example 1(3) above, except that the purified thrombin-cleaved sample was used as a sample for the SDS-PAGE in addition to the purified sample. […]

Assay [3] has as its target T3, VHH-SnoopCatcher (fragment released from VHH-SnoopCatcher-Herceptin H chain by thrombin).
T3 construct: Seen only as a band on SDS-PAGE, together with VHH-SnoopTag
As to the kind of experiment: SDS-PAGE of the purified thrombin-cleaved sample.

B1: VHH-SpyTag (fragment released from VHH-SpyTag-CD3 L chain by thrombin) (other, not shown: small tags and cut ends)
chain: QVQLVESGGALVQPGGSLRLSCAASGFPVNRYSMRWYRQAPGKEREWVAGMSSAGDRSSYEDSVKGRFTISRDDARNTVYLQMNSLKPEDTAVYYCNVNVGFEYWGQGTQVTVSSGGSGGAHIVMVDAYKPTKGGSGGGGSGG
notes: Seen only as a band on SDS-PAGE, together with VHH-SpyCatcher
As for B1, in assay [1], the binding result was “binds”.

B2: VHH-SpyTag-CD3 L chain (other)
chain: QVQLVESGGALVQPGGSLRLSCAASGFPVNRYSMRWYRQAPGKEREWVAGMSSAGDRSSYEDSVKGRFTISRDDARNTVYLQMNSLKPEDTAVYYCNVNVGFEYWGQGTQVTVSSGGSGGAHIVMVDAYKPTKGGSGGGGSGGLVPRGSHMHMDIVLTQSPAIMSASPGEKVTMTCSASSSVSYMNWYKQKSGTSPKRWTYDTSKLASGVPARFSGSGSGTSYSLTISSMEAEDAATYYCQQWSSNPPTFGSGTKLEIKRTVAAPSVFIFPPSDEQLKSGTASVVCLLNNFYPREAKVQWKVDNALQSGNSQESVTEQDSKDSTYSLSSTLTLSKADYEKHKVYACEVTHQGLSSPVTKSFNRGEC
notes: Fusion protein expressed in Expi293F cells; also called first protein; VHH-SpyTag-CD3 L chain region
For the molecule B2, the binding result in assay [2] is “binds”.

B3: VHH-SnoopTag (fragment released from VHH-SnoopTag-Herceptin L chain by thrombin) (other, not shown: small tags and cut ends)
chain: QVQLVESGGALVQPGGSLRLSCAASGFPVNRYSMRWYRQAPGKEREWVAGMSSAGDRSSYEDSVKGRFTISRDDARNTVYLQMNSLKPEDTAVYYCNVNVGFEYWGQGTQVTVSSGGSGGKLGDIEFIKVNKGGSGGGGSGG
notes: Seen only as a band on SDS-PAGE, together with VHH-SnoopCatcher
Consider B3, for which the binding result in assay [3] is reported as “binds”.
